Reference: patent US20240092919A1
Substitutions are numbered along the chain they refer to.

B1: A022600175 (protein)
chain: DVQLVESGGGVVQPGGSLRLSCVASGYVHKINFYGWYRQAPGKEREKVAHISIGDQTDYADSAKGRFTISRDESKNTVYLQMNSLRPEDTAAYYCRALSRIWPYDYWGQGTLVTVSSGGGGSEVQLVESGGGLVQPGGSLRLSCVASGFTFSSFAMTWVRRPPGKGLEWVATITNGGVTSYRDSVKGRFTISRDNAKNTLYLEMTSLNPEDTAVYICANARRTGPRAPTDIGSYRGQGTLVTVSSGGGGSGGGSEVQLVESGGGLVQPGGSLRLSCVASGSIFRSVFSSSTMEWYRQPPGKKRELVARIAPGDGTNYGALYADSVKGRFTISRDDAKKTVDLQMNSLKPEDTGVYFCASGVAWGQGTLVTVSSGGGGSGGGGSGGGGSGGGGSGGGGSGGGGSGGGGSEVQLVESGGGVVQPGGSLRLSCAASGFTFRSFGMSWVRQAPGKGPEWVSSISGSGSDTLYADSVKGRFTISRDNSKNTLYLQMNSLRPEDTALYYCTIGGSLSRSSQGTLVTVSSA
B2: A022600169 (protein)
chain: DVQLVESGGGLVQPGGSLRLSCVASGFTFSSFAMTWVRRPPGKGLEWVATITNGGVTSYRDSVKGRFTISRDNAKNTLYLEMTSLNPEDTAVYICANARRTGPRAPTDIGSYRGQGTLVTVSSGGGGSEVQLVESGGGVVQPGGSLRLSCVASGYVHKINFYGWYRQAPGKEREKVAHISIGDQTDYADSAKGRFTISRDESKNTVYLQMNSLRPEDTAAYYCRALSRIWPYDYWGQGTLVTVSSGGGGSEVQLVESGGGLVQPGGSLRLSCVASGSIFRSVFSSSTMEWYRQPPGKKRELVARIAPGDGTNYGALYADSVKGRFTISRDDAKKTVDLQMNSLKPEDTGVYFCASGVAWGQGTLVTVSSGGGGSGGGGSGGGGSGGGGSGGGGSGGGGSGGGGSEVQLVESGGGVVQPGGSLRLSCAASGFTFRSFGMSWVRQAPGKGPEWVSSISGSGSDTLYADSVKGRFTISRDNSKNTLYLQMNSLRPEDTALYYCTIGGSLSRSSQGTLVTVSSA
B3: A022600174 (protein)
chain: DVQLVESGGGVVQPGGSLRLSCVASGYVHKINFYGWYRQAPGKEREKVAHISIGDQTDYADSAKGRFTISRDESKNTVYLQMNSLRPEDTAAYYCRALSRIWPYDYWGQGTLVTVSSGGGGSEVQLVESGGGLVQPGGSLRLSCVASGFTFSSFAMTWVRRPPGKGLEWVATITNGGVTSYRDSVKGRFTISRDNAKNTLYLEMTSLNPEDTAVYICANARRTGPRAPTDIGSYRGQGTLVTVSSGGGGSGGGSEVQLVESGGGLVQPGGSLRLSCVASGSIFRSVFSSSTMEWYRQPPGKKRELVARIAPGDGTNYGALYADSVKGRFTISRDDAKKTVDLQMNSLKPEDTGVYFCASGVAWGQGTLVTVSSGGGGSGGGSEVQLVESGGGVVQPGGSLRLSCAASGFTFRSFGMSWVRQAPGKGPEWVSSISGSGSDTLYADSVKGRFTISRDNSKNTLYLQMNSLRPEDTALYYCTIGGSLSRSSQGTLVTVSSA
B4: A022600172 (protein)
chain: DVQLVESGGGVVQPGGSLRLSCVASGYVHKINFYGWYRQAPGKEREKVAHISIGDQTDYADSAKGRFTISRDESKNTVYLQMNSLRPEDTAAYYCRALSRIWPYDYWGQGTLVTVSSGGGGSEVQLVESGGGLVQPGGSLRLSCVASGFTFSSFAMTWVRRPPGKGLEWVATITNGGVTSYRDSVKGRFTISRDNAKNTLYLEMTSLNPEDTAVYICANARRTGPRAPTDIGSYRGQGTLVTVSSGGGGSGGGSEVQLVESGGGVVQPGGSLRLSCAASGFTFRSFGMSWVRQAPGKGPEWVSSISGSGSDTLYADSVKGRFTISRDNSKNTLYLQMNSLRPEDTALYYCTIGGSLSRSSQGTLVTVSSGGGGSGGGSEVQLVESGGGLVQPGGSLRLSCVASGSIFRSVFSSSTMEWYRQPPGKKRELVARIAPGDGTNYGALYADSVKGRFTISRDDAKKTVDLQMNSLKPEDTGVYFCASGVAWGQGTLVTVSSA
B5: A022600179 (protein)
chain: DVQLVESGGGVVQPGGSLRLSCVASGYVHKINFYGWYRQAPGKEREKVAHISIGDQTDYADSAKGRFTISRDESKNTVYLQMNSLRPEDTAAYYCRALSRIWPYDYWGQGTLVTVSSGGGGSEVQLVESGGGLVQPGGSLRLSCVASGFTFSSFAMTWVRRPPGKGLEWVATITNGGVTSYRDSVKGRFTISRDNAKNTLYLEMTSLNPEDTAVYICANARRTGPRAPTDIGSYRGQGTLVTVSSGGGGSGGGSEVQLVESGGGVVQPGGSLRLSCAASGFTFRSFGMSWVRQAPGKGPEWVSSISGSGSDTLYADSVKGRFTISRDNSKNTLYLQMNSLRPEDTALYYCTIGGSLSRSSQGTLVTVSSA
B6: A022600170 (protein)
chain: DVQLVESGGGVVQPGGSLRLSCVASGYVHKINFYGWYRQAPGKEREKVAHISIGDQTDYADSAKGRFTISRDESKNTVYLQMNSLRPEDTAAYYCRALSRIWPYDYWGQGTLVTVSSGGGGSEVQLVESGGGLVQPGGSLRLSCVASGFTFSSFAMTWVRRPPGKGLEWVATITNGGVTSYRDSVKGRFTISRDNAKNTLYLEMTSLNPEDTAVYICANARRTGPRAPTDIGSYRGQGTLVTVSSGGGGSGGGGSGGGGSGGGGSGGGGSGGGGSGGGGSEVQLVESGGGLVQPGGSLRLSCVASGSIFRSVFSSSTMEWYRQPPGKKRELVARIAPGDGTNYGALYADSVKGRFTISRDDAKKTVDLQMNSLKPEDTGVYFCASGVAWGQGTLVTVSSGGGGSGGGSEVQLVESGGGVVQPGGSLRLSCAASGFTFRSFGMSWVRQAPGKGPEWVSSISGSGSDTLYADSVKGRFTISRDNSKNTLYLQMNSLRPEDTALYYCTIGGSLSRSSQGTLVTVSSA
B7: A022600427 (protein)
chain: DVQLVESGGGVVQPGGSLRLSCVASGYVHKINFYGWYRQAPGKEREKVAHISIGDQTDYADSAKGRFTISRDESKNTVYLQMNSLRPEDTAAYYCRALSRIWPYDYWGQGTLVTVSSGGGGSEVQLVESGGGVVQPGGSLRLSCAASGFTFSSFAMTWVRRPPGKGLEWVATITNAGVTSYADSVKGRFTISRDNAKNTLYLQMNSLRPEDTALYICANARRTGPRAPTDIGSYRGQGTLVTVSSGGGGSGGGSEVQLVESGGGVVQPGGSLRLSCAASGSIFRSVFSSSTMEWYRQAPGKKRELVARIAPGEGTYYGALYADSVKGRFTISRDNAKNTVYLQMNSLRPEDTALYYCASGVAWGQGTLVTVSSGGGGSGGGSEVQLVESGGGVVQPGGSLRLSCAASGFTFRSFGMSWVRQAPGKGPEWVSSISGSGSDTLYADSVKGRFTISRDNSKNTLYLQMNSLRPEDTALYYCTIGGSLSRSSQGTLVTVSSA
B8: A022600425 (protein)
chain: DVQLVESGGGVVQPGGSLRLSCVASGYVHKINFYGWYRQAPGKEREKVAHISIGDQTDYADSAKGRFTISRDESKNTVYLQMNSLRPEDTAAYYCRALSRIWPYDYWGQGTLVTVSSGGGGSEVQLVESGGGVVQPGGSLRLSCAASGSIFRSVFSSSTMEWYRQAPGKKRELVARIAPGEGTYYGALYADSVKGRFTISRDNAKNTVYLQMNSLRPEDTALYYCASGVAWGQGTLVTVSSGGGGSGGGGSGGGGSGGGGSEVQLVESGGGVVQPGGSLRLSCAASGFTFSSFAMTWVRRPPGKGLEWVATITNAGVTSYADSVKGRFTISRDNAKNTLYLQMNSLRPEDTALYICANARRTGPRAPTDIGSYRGQGTLVTVSSGGGGSGGGSEVQLVESGGGVVQPGGSLRLSCAASGFTFRSFGMSWVRQAPGKGPEWVSSISGSGSDTLYADSVKGRFTISRDNSKNTLYLQMNSLRPEDTALYYCTIGGSLSRSSQGTLVTVSSA
B9: A022600426 (protein)
chain: B8 chain with A315K
B10: A022600412 (protein)
chain: DVQLVESGGGVVQPGGSLRLSCVASGYVHKINFYGWYRQAPGKEREKVAHISIGDQTDYADSAKGRFTISRDESKNTVYLQMNSLRPEDTAAYYCRALSRIWPYDYWGQGTLVTVSSGGGGSEVQLVESGGGVVQPGGSLRLSCAASGFTFSSFAMTWVRRPPGKGLEWVATITNAGVTSYADSVKGRFTISRDNAKNTLYLQMNSLRPEDTALYICANARRTGPRAPTDIGSYRGQGTLVTVSSGGGGSGGGGSGGGGSGGGGSEVQLVESGGGVVQPGGSLRLSCAASGFTFRSFGMSWVRQAPGKGPEWVSSISGSGSDTLYADSVKGRFTISRDNSKNTLYLQMNSLRPEDTALYYCTIGGSLSRSSQGTLVTVSSA

Target: human GPC3 on cells (human) (UniProt P51654)
Test: cell-based or functional assay

| Binder | HepG2 on Incucyte IC50 (M), human TDC, E:T 15:1, 60 h | HepG2 on Incucyte Max % killing, 60 h | Huh7 on xCELLigence IC50 (M), human TDC, E:T 15:1, 60 h | Huh7 on xCELLigence Max % killing, 60 h | IC50 (M) BxPC-3, xCELLigence human TDC assay, E:T 15:1, 60 h | IC50 (M) HepG2, xCELLigence human TDC assay, E:T 15:1, 60 h | IC50 (M) Huh-7, xCELLigence human TDC assay, E:T 15:1, 60 h | IC50 (M) NCI-H23, xCELLigence human TDC assay, E:T 15:1, 60 h | IC50 (M) NCI-H661, xCELLigence human TDC assay, E:T 15:1, 60 h |
| --- | --- | --- | --- | --- | --- | --- | --- | --- | --- |
| B1 | 5.27e-10 M | 96% | 5.86e-11 M | 99% |  |  |  |  |  |
| B2 | 6.41e-10 M | 81% | 1.02e-09 M | 61% |  |  |  |  |  |
| B3 | 6.73e-10 M | 96% | 6.26e-11 M | 99% |  |  |  |  |  |
| B4 | 6.01e-10 M | 81% | 6.7e-11 M | 90% |  |  |  |  |  |
| B5 | 2.92e-09 M | 76% | 6.13e-09 M | 66% |  |  |  |  |  |
| B6 | 3.19e-10 M | 97% | 1.86e-10 M | 103% |  |  |  |  |  |
| B7 |  |  |  |  | > 1e-07 M | 1.03e-10 M | 1.37e-10 M | > 1e-07 M | 1e-10 M |
| B8 |  |  |  |  | > 1e-07 M | 1.11e-10 M | 1.58e-10 M | > 1e-07 M | 2.59e-10 M |
| B9 |  |  |  |  | > 1e-07 M | 1.25e-10 M | 1.09e-10 M | > 1e-07 M | 2.64e-10 M |
| B10 |  |  |  |  | > 1e-07 M | 3.82e-10 M | 1.53e-09 M |  | 6.18e-10 M |
